Nine molecules from patent publication US20240084003A1 (SIMCERE ZAIMING PHARMACEUTICAL, published 2024) can be followed below.

B1: F1.172.13 (antibody, human IgG1, kappa, V domains shown)
VH: QVTLKESGPGILQSSQTLSLTCSFSGFSLSTSGMGVSWIRQPSGKGLEWLAHIYWDDDKRYNPSLKSRLTISKDTSRNQVFLKITSVDTADTATYYCARAPPPNWDEYYFDYWGQGTTLTVSS
VL: DIQMTQSPASLSASVGETVTITCRASGNIHNSLAWYQQKQGKSPQLLVHNAKTLADGVPSRFSGSGSGTQYSLKINSLQPEDFGSYYCQHFWSTPPFGGGTKLEIKR
notes: Chimeric IgG1 kappa
B2: F1.17.1 (antibody, human IgG1, kappa, V domains shown)
VH: QVQLKESGPGLVAPSQSLSITCTVSGFSLSRYTVHWVRQPPGKGLEWLGMIWGGGSTDYNSALKSRLSISKDNSKSQVFLKMNSLQTDDTAMYYCARPHDFDAGGFAYWGQGTLVTVSA
VL: QIVLTQSPAILSTSPGEKVTMTCSASSRVNYMYWYQQKPGSSPRLLIYDTSNLASGVPVRFSGSGSGTSYSLTISRMEAEDAATYYCQQWTSYPLTFGAGTKLELKR
notes: Chimeric IgG1 kappa
B3: F1.120.15 (antibody, human IgG1, kappa, V domains shown)
VH: QVQLQQSGPELVKPGASVKISCKASGNAFSNSWMNWVKQRPGKGLEWIGRVYSEDGDTQYNGKFRDKATLTADRSTSTAYMQLSSLTSEDSAVYFCARWLIYYGTYGAMDYWGQGTSVTVSS
VL: DIQMTQTTSSLSASLGDRVTISCRASQDINNYLNWYHQKPDGTVKLLIYFTSRPYSGVPSRFSGSGSGTDYSLTISNLEQEDIATYFCQQGNTLPWTFGGGTKLEIKR
notes: Chimeric IgG1 kappa
B4: F2.205.9 (antibody, human IgG1, lambda, V domains shown)
VH: QVTLKESGPGILQPSQTLSLTCSFSGFSLSTSGMGVGWIRQPSGKGLEWLAHIWWDDDEYYNPALKSRLTISKDTSKNQVFLKIANVDTADTATYYCARISIPYGYYDWFFDVWGTGTTVTVSA
VL: QAVVTQESALTTSPGETVTLTCRSSTGAVTTRNYANWVQEKPDHLFTGLIGGTNNRAPGVPARFSGSLIGDKAALTITGAQTEDEAIYFCALWYSNHFIFGSGTKVTVLG
notes: Chimeric IgG1 lambda
B5: F2.343.16 (antibody, human IgG1, lambda, V domains shown)
VH: QVQLKQSGPGLVQPSQSLSITCTVSGFSLTGYGVQWVRQSPGKGLEWLGVIWGGGGTDYNAAFISRLNIIKDNSKSQVFFKMNSLQADDTAIYYCARYSKYGHFDVWGTGTAVTVSS
VL: QAVVTQESALTTSPGETVTLTCRSSTGAVTTSNYANWVQEKPDHLFTGLIGGTYNRVPGVPARFSGSLIGDKAALTITGAQTEDEAIYFCALWYSNHFWVFGGGTKLTVLG
notes: Chimeric IgG1 lambda
B6: F1.224.1 (antibody, human IgG1, kappa, V domains shown)
VH: EVLLHQSGPELVKPGASVKISCKASGYTFTDFNMDWVRQRHGQSLEWIGDVNPNNGGTIYNQKFKGKATLTVDKSSSTVYMDLRSLTSDDTAVYYCVRLGTSDYGEAWFISWGQGTVVTVSA
VL: DIVLTQSPASLAVSLGQRATISCRASQSVSTPRYSFMHWYQQKPGQPPKLLIKYASNLESGFPARFTGSGSGTDFTLNIHPVEEEDTAAYYCQQSWAIPWTFGGGTKLEIKR
notes: Chimeric IgG1 kappa
B7: F1.267.9 (antibody, human IgG1, kappa, V domains shown)
VH: EVQLQQSGPVLVKPGASVKMSCKASGYTFTDFYMNWAKQSHGKSLEWVGVINPYNGGINYNQKFKGKATLTVDKSSSTAYMEFNSLTSEDSAVYYCARRMEYHAMDYWGQGTSVTVSS
VL: DIVLTQSPASLAVSLGQRATISCRASESVDNYGFDFIHWYQQKPGQPPKLLIYRASNLESGIPARFSGSGSRPDFTLTINPVETDDVATYYCQQSIKDPWTFGGGTKLEIKR
notes: Chimeric IgG1 kappa
B8: F1.250.16 (antibody, human IgG1, kappa, V domains shown)
VH: QVQLQQSGAEQVKPGASVKMSCKASGYTFTTYPIEWMKQNHGESLDWIGNIHPYNDDTEYNEKFKGKATLTVEKSSNTVFLELSRLTSDDSAVYYCVRGDYYNSRYWYFDVWGTGTTVTVSS
VL: DIVMTQSQKFMSTTVGDRVSITCKAGQNVRTAVAWYQQKPGQSPKLLIYSASTRYIGVPERFTGSGSGTDFTLTITNMQSEDLADYFCQQYSSFPLTFGTGTKLELKR
notes: Chimeric IgG1 kappa
B9: F1.216.2 (antibody, human IgG1, kappa, V domains shown)
VH: QVQLQQSGPEVVRPGASVKISCKASGYAFSSSWMNWMKQRPGKALEWIGRIYPGDGDTNYSGEFKVKATLTADKSSSTAYMQLSSLTSEDSAVYFCAREGSYYSNPWYFDYWGQGTTLTVSS
VL: DVLVTQTPLSLPVSLGDQASISCRSSQSIVQSNGDTYLEWYLQKPGQSPKLLIYKVSNRFSGVPDRFSGSGSGTDFTLKISRVEAEDLGVYYCFQGSHVPFTFGSGTKLEIKR
notes: Chimeric IgG1 kappa

The first assay has as its target T1, human CD22 domain5-7-His (human, UniProt P20273 414-687).
T1 construct: also called hCD22 domain5-7-His; not shown: His tag
T1 sequence: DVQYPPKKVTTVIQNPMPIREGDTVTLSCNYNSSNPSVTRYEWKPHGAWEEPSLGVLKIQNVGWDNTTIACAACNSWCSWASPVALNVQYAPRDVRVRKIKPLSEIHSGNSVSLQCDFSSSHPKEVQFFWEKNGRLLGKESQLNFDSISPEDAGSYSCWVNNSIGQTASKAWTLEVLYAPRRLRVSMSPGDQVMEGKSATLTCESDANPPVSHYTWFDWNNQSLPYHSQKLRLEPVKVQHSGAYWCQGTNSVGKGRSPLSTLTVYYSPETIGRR
The assay can be described thus: ELISA, plate coated with human CD22 domain5-7-His.
With B1, the binding result is “no binding”.

For the molecule B2, the binding result was “no binding”.

For B3, the binding result is given as “no binding”.

With B4, the binding result is listed as “no binding”.

For the molecule B5, the binding result is listed as “no binding”.

In the case of B6, the binding result was “no binding”.

Consider B7, for which the binding result is reported as “no binding”.

On to B8, for which the binding result is listed as “no binding”.

Turning to B9, the binding result is “no binding”.

For a further assay, the target named is T2, rhesus monkey CD22-ECD-His protein (rhesus monkey, UniProt H9G1X2 18-686).
T2 construct: extracellular domain; also called monkey CD22 protein
T2 sequence: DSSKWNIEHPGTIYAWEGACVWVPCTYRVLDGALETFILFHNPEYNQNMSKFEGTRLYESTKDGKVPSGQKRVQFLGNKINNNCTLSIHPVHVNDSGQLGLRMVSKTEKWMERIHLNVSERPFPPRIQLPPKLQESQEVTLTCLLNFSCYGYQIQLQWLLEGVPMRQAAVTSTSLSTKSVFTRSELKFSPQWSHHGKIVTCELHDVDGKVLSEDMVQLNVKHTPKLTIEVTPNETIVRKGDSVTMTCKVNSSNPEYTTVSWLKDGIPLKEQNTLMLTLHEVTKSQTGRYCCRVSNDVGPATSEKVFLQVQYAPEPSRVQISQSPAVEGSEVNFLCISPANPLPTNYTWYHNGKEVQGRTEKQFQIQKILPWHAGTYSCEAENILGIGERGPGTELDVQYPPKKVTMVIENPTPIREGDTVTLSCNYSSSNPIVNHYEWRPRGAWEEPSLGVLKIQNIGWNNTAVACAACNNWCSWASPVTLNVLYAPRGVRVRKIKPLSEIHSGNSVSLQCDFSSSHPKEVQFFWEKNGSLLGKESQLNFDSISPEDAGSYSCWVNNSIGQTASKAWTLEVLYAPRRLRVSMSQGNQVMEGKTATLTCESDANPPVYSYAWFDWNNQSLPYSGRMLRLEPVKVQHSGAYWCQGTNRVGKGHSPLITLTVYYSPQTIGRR
As to the kind of experiment: SPR (Biacore), antibody captured on Protein A chip, rhesus CD22 in solution.
Consider B1, for which the Kd amounted to 6.9 nM, the koff was found to be 0.00138 s⁻¹ and the kon stood at 200000 M⁻¹ s⁻¹.

Molecule B2 had a Kd of 3.67 nM, a koff of 0.000531 s⁻¹ and a kon of 144000 M⁻¹ s⁻¹.

Molecule B3 registered a Kd of 15.1 nM, a koff of 0.000637 s⁻¹ and a kon of 42100 M⁻¹ s⁻¹.

B4 had a Kd of 10.3 nM, a koff of 0.0014 s⁻¹ and a kon of 135000 M⁻¹ s⁻¹.

Consider B6, for which the Kd came out at 2.04 nM, the koff turned out to be 0.000107 s⁻¹ and the kon was found to be 52300 M⁻¹ s⁻¹.

On to B7, for which binding was characterised by a dissociation constant (Kd) of 2.25 nM, the koff came to 6e-05 s⁻¹ and the kon amounted to 26700 M⁻¹ s⁻¹.

Consider B8, for which the Kd amounted to 3.48 nM, the koff amounted to 0.00127 s⁻¹ and the kon came out at 366000 M⁻¹ s⁻¹.

B9: the Kd turned out to be 7.18 nM, the koff was found to be 0.000538 s⁻¹ and the kon worked out at 74900 M⁻¹ s⁻¹.

Another assay concerns the target T3, human CD22-ECD-His protein (human, UniProt P20273 20-687).
T3 construct: Recombinant, from HEK293E cells; also called hCD22-ECD-His; human CD22-His protein; not shown: His tag
T3 sequence: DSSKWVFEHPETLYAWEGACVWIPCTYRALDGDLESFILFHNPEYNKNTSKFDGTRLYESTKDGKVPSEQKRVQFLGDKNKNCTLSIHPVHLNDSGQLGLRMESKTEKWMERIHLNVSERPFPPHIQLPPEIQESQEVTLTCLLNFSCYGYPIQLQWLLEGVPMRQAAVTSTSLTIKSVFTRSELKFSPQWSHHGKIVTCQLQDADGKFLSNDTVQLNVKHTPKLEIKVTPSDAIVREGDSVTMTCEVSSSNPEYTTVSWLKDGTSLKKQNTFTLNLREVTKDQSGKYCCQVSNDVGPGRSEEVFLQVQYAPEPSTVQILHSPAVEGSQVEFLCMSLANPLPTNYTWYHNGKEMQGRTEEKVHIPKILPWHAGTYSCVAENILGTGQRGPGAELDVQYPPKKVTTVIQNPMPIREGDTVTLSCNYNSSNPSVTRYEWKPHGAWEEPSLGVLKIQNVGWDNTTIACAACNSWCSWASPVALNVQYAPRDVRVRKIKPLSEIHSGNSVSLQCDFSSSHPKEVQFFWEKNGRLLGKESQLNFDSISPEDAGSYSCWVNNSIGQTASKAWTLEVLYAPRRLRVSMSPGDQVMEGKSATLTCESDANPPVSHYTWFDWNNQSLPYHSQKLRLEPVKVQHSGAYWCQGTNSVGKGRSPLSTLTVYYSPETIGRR
As to the kind of experiment: SPR (Biacore), antibody captured on Protein A chip, CD22-ECD-His in solution. The method, then: Sample buffer and running buffer were HBS-EP+(10 mM HEPES, 150 mM NaCl, 3 mM EDTA, 0.05% surfactant P20) (GE Healthcare; BR-1006-69). The flow-through cell was set to 25° C. The sample block was set to 16° C. Both were pretreated with the running buffer. In each cycle, the antibody to be tested was first captured with a Protein A chip, then a single concentration of CD22 antigen protein was injected. The binding and dissociation process of the antibody and the antigen protein was recorded, and finally Glycine pH 1.5 (GE Healthcare; BR-1003-54) was used to complete chip regeneration. Binding was measured by injecting different concentrations of recombinant human CD22-ECD His protein in solution for 240 s with a flow rate of 30 μL/min. The concentration started from 200 nM (see the detailed results for the actual concentration in the test) and was diluted at 1:1, making a total of 5 concentrations. The dissociation phase was monitored for up to 600 s and was triggered by switching from sample solution to running buffer. The surface was regenerated by washing with a 10 mM of glycine solution (pH 1.5) for 30 s at a flow rate of 30 μL/min. Bulk refractive index difference was corrected by subtracting the response obtained from the goat anti-human Fc surface. Blank injection was also subtracted (=double reference). For calculation of apparent KD and other kinetic parameters, Langmuir 1:1 model was used.
B1 returned a Kd of 17.6 nM, a koff of 0.00539 s⁻¹ and a kon of 306000 M⁻¹ s⁻¹.

B2 displayed a Kd of 2.07 nM, a koff of 0.000498 s⁻¹ and a kon of 241000 M⁻¹ s⁻¹.

Regarding B3, binding was characterised by a dissociation constant (Kd) of 19.5 nM, the koff turned out to be 0.000232 s⁻¹ and the kon is 11900 M⁻¹ s⁻¹.

Take B4: the affinity, expressed as Kd, was 1.57 nM; the koff came out at 0.000386 s⁻¹; the kon was 246000 M⁻¹ s⁻¹.

Consider B5, for which binding was put at a Kd of 4970 nM, the koff stood at 0.101 s⁻¹ and the kon was 20400 M⁻¹ s⁻¹.

As for B6, the Kd is 13.8 nM, the koff was determined as 0.000267 s⁻¹ and the kon is 19400 M⁻¹ s⁻¹.

B7 gave a Kd of 40.9 nM, a dissociation rate constant (koff) of 0.000223 s⁻¹ and a kon of 5440 M⁻¹ s⁻¹.

In turn, B8 yielded a Kd of 1.44 nM, a koff of 0.000607 s⁻¹ and an on-rate constant (kon) of 422000 M⁻¹ s⁻¹.

In turn, B9 showed a Kd of 25.3 nM, a koff of 0.000944 s⁻¹ and a kon of 37300 M⁻¹ s⁻¹.
